Measurements as given in patent US20260049138A1 (Chugai, published 2026).

Target: T1, CD3ε homodimer protein (human, UniProt P07766 23-126, limits assumed)
T1 construct: also called CD3 (CD3ε)
Assay: SPR Biacore T200, CD3ε homodimer on chip;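 also: Light-chain single-residue variant antibodies injected over amine-coupled CD3ε homodimer on a CM4 chip at 25 °C, bound amount divided by that of the GLS3000-containing antibody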

T1 sequence (P07766 23-126 limits assumed): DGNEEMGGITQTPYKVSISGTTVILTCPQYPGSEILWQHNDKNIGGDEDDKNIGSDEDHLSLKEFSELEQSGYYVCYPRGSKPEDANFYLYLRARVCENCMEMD

| Binder | ratio of amount bound vs unaltered GLS3000 |
| --- | --- |
| GLS3000 R24D one-arm antibody (antibody, human IgG1, kappa, L234A L235A, N297A, name in Kabat numbering) heavy: QVQLVESGGGVVQPGRSLRLSCAASGFTFSNAWMHWVRQAPGKGLEWVAQIKAKSNNYATYYAESVKGRFTISRDDSKNSLYLQMNSLKTEDTAVYYCRYVHYGAYYGVDAWGQGTTVTVSSASTKGPSVFPLAPSSKSTSGGTAALGCLVKDYFPEPVTVSWNSGALTSGVHTFPAVLQSSGLYSLSSVVTVPSSSLGTQTYICNVNHKPSNTKVDKKVEPKSCDKTHTCPPCPAPEAAGGPSVFLFPPKPKDTLMISRTPEVTCVVVDVSHEDPEVKFNWYVDGVEVHNAKTKPREEQYASTYRVVSVLTVLHQDWLNGKEYKCKVSNKALPAPIEKTISKAKGQPREPQVYTLPPSRCELTKNQVSLSCAVKGFYPSDIAVEWESNGQPENNYKTTPPVLDSDGSFFLVSKLTVDKSRWQQGNVFSCSVMHEALHNHYTQKSLSLSPDYKDDDDK EPKSSDKTHTCPPCPAPELLGGPSVFLFPPKPKDTLMISRTPEVTCVVVDVSHEDPEVKFNWYVDGVEVHNAKTKPREEQYNSTYRVVSVLTVLHQDWLNGKEYKCKVSNKALPAPIEKTISKAKGQPREPQVCTLPPSRDELTKNQVSLWCLVKGFYPSDIAVEWESNGQPENNYKTTPPVLDSDGSFFLYSKLTVDKSRWQQGNVFSCSVMHEALHNRYTQKSLSLSP light: DIVMTQSPLSLPVTPGEPASISCDSSQSLVHSNRNTYLHWYQQKPGQAPRLLIYKVSNRFSGVPDRFSGSGSGTDFTLKISRVEAEDVGVYYCGQGTQVPYTFGQGTKLEIKRTVAAPSVFIFPPSDEQLKSGTASVVCLLNNFYPREAKVQWKVDNALQSGNSQESVTEQDSKDSTYSLSSTLTLSKADYEKHKVYACEVTHQGLSSPVTKSFNRGEC | 0.75 |
| GLS3000 R24S one-arm antibody (antibody, human IgG1, kappa, L234A L235A, N297A, name in Kabat numbering) heavy: QVQLVESGGGVVQPGRSLRLSCAASGFTFSNAWMHWVRQAPGKGLEWVAQIKAKSNNYATYYAESVKGRFTISRDDSKNSLYLQMNSLKTEDTAVYYCRYVHYGAYYGVDAWGQGTTVTVSSASTKGPSVFPLAPSSKSTSGGTAALGCLVKDYFPEPVTVSWNSGALTSGVHTFPAVLQSSGLYSLSSVVTVPSSSLGTQTYICNVNHKPSNTKVDKKVEPKSCDKTHTCPPCPAPEAAGGPSVFLFPPKPKDTLMISRTPEVTCVVVDVSHEDPEVKFNWYVDGVEVHNAKTKPREEQYASTYRVVSVLTVLHQDWLNGKEYKCKVSNKALPAPIEKTISKAKGQPREPQVYTLPPSRCELTKNQVSLSCAVKGFYPSDIAVEWESNGQPENNYKTTPPVLDSDGSFFLVSKLTVDKSRWQQGNVFSCSVMHEALHNHYTQKSLSLSPDYKDDDDK EPKSSDKTHTCPPCPAPELLGGPSVFLFPPKPKDTLMISRTPEVTCVVVDVSHEDPEVKFNWYVDGVEVHNAKTKPREEQYNSTYRVVSVLTVLHQDWLNGKEYKCKVSNKALPAPIEKTISKAKGQPREPQVCTLPPSRDELTKNQVSLWCLVKGFYPSDIAVEWESNGQPENNYKTTPPVLDSDGSFFLYSKLTVDKSRWQQGNVFSCSVMHEALHNRYTQKSLSLSP light: DIVMTQSPLSLPVTPGEPASISCSSSQSLVHSNRNTYLHWYQQKPGQAPRLLIYKVSNRFSGVPDRFSGSGSGTDFTLKISRVEAEDVGVYYCGQGTQVPYTFGQGTKLEIKRTVAAPSVFIFPPSDEQLKSGTASVVCLLNNFYPREAKVQWKVDNALQSGNSQESVTEQDSKDSTYSLSSTLTLSKADYEKHKVYACEVTHQGLSSPVTKSFNRGEC | 0.89 |
| GLS3000 R24G one-arm antibody (antibody, human IgG1, kappa, L234A L235A, N297A, name in Kabat numbering) heavy: QVQLVESGGGVVQPGRSLRLSCAASGFTFSNAWMHWVRQAPGKGLEWVAQIKAKSNNYATYYAESVKGRFTISRDDSKNSLYLQMNSLKTEDTAVYYCRYVHYGAYYGVDAWGQGTTVTVSSASTKGPSVFPLAPSSKSTSGGTAALGCLVKDYFPEPVTVSWNSGALTSGVHTFPAVLQSSGLYSLSSVVTVPSSSLGTQTYICNVNHKPSNTKVDKKVEPKSCDKTHTCPPCPAPEAAGGPSVFLFPPKPKDTLMISRTPEVTCVVVDVSHEDPEVKFNWYVDGVEVHNAKTKPREEQYASTYRVVSVLTVLHQDWLNGKEYKCKVSNKALPAPIEKTISKAKGQPREPQVYTLPPSRCELTKNQVSLSCAVKGFYPSDIAVEWESNGQPENNYKTTPPVLDSDGSFFLVSKLTVDKSRWQQGNVFSCSVMHEALHNHYTQKSLSLSPDYKDDDDK EPKSSDKTHTCPPCPAPELLGGPSVFLFPPKPKDTLMISRTPEVTCVVVDVSHEDPEVKFNWYVDGVEVHNAKTKPREEQYNSTYRVVSVLTVLHQDWLNGKEYKCKVSNKALPAPIEKTISKAKGQPREPQVCTLPPSRDELTKNQVSLWCLVKGFYPSDIAVEWESNGQPENNYKTTPPVLDSDGSFFLYSKLTVDKSRWQQGNVFSCSVMHEALHNRYTQKSLSLSP light: DIVMTQSPLSLPVTPGEPASISCGSSQSLVHSNRNTYLHWYQQKPGQAPRLLIYKVSNRFSGVPDRFSGSGSGTDFTLKISRVEAEDVGVYYCGQGTQVPYTFGQGTKLEIKRTVAAPSVFIFPPSDEQLKSGTASVVCLLNNFYPREAKVQWKVDNALQSGNSQESVTEQDSKDSTYSLSSTLTLSKADYEKHKVYACEVTHQGLSSPVTKSFNRGEC | 0.89 |
| GLS3000 R24E one-arm antibody (antibody, human IgG1, kappa, L234A L235A, N297A, name in Kabat numbering) heavy: QVQLVESGGGVVQPGRSLRLSCAASGFTFSNAWMHWVRQAPGKGLEWVAQIKAKSNNYATYYAESVKGRFTISRDDSKNSLYLQMNSLKTEDTAVYYCRYVHYGAYYGVDAWGQGTTVTVSSASTKGPSVFPLAPSSKSTSGGTAALGCLVKDYFPEPVTVSWNSGALTSGVHTFPAVLQSSGLYSLSSVVTVPSSSLGTQTYICNVNHKPSNTKVDKKVEPKSCDKTHTCPPCPAPEAAGGPSVFLFPPKPKDTLMISRTPEVTCVVVDVSHEDPEVKFNWYVDGVEVHNAKTKPREEQYASTYRVVSVLTVLHQDWLNGKEYKCKVSNKALPAPIEKTISKAKGQPREPQVYTLPPSRCELTKNQVSLSCAVKGFYPSDIAVEWESNGQPENNYKTTPPVLDSDGSFFLVSKLTVDKSRWQQGNVFSCSVMHEALHNHYTQKSLSLSPDYKDDDDK EPKSSDKTHTCPPCPAPELLGGPSVFLFPPKPKDTLMISRTPEVTCVVVDVSHEDPEVKFNWYVDGVEVHNAKTKPREEQYNSTYRVVSVLTVLHQDWLNGKEYKCKVSNKALPAPIEKTISKAKGQPREPQVCTLPPSRDELTKNQVSLWCLVKGFYPSDIAVEWESNGQPENNYKTTPPVLDSDGSFFLYSKLTVDKSRWQQGNVFSCSVMHEALHNRYTQKSLSLSP light: DIVMTQSPLSLPVTPGEPASISCESSQSLVHSNRNTYLHWYQQKPGQAPRLLIYKVSNRFSGVPDRFSGSGSGTDFTLKISRVEAEDVGVYYCGQGTQVPYTFGQGTKLEIKRTVAAPSVFIFPPSDEQLKSGTASVVCLLNNFYPREAKVQWKVDNALQSGNSQESVTEQDSKDSTYSLSSTLTLSKADYEKHKVYACEVTHQGLSSPVTKSFNRGEC | 0.83 |

Second part, the binder after the results:

| ratio of amount bound vs unaltered GLS3000 | Binder |
| --- | --- |
| 0.9 | GLS3000 R24Q one-arm antibody (antibody, human IgG1, kappa, L234A L235A, N297A, name in Kabat numbering) heavy: QVQLVESGGGVVQPGRSLRLSCAASGFTFSNAWMHWVRQAPGKGLEWVAQIKAKSNNYATYYAESVKGRFTISRDDSKNSLYLQMNSLKTEDTAVYYCRYVHYGAYYGVDAWGQGTTVTVSSASTKGPSVFPLAPSSKSTSGGTAALGCLVKDYFPEPVTVSWNSGALTSGVHTFPAVLQSSGLYSLSSVVTVPSSSLGTQTYICNVNHKPSNTKVDKKVEPKSCDKTHTCPPCPAPEAAGGPSVFLFPPKPKDTLMISRTPEVTCVVVDVSHEDPEVKFNWYVDGVEVHNAKTKPREEQYASTYRVVSVLTVLHQDWLNGKEYKCKVSNKALPAPIEKTISKAKGQPREPQVYTLPPSRCELTKNQVSLSCAVKGFYPSDIAVEWESNGQPENNYKTTPPVLDSDGSFFLVSKLTVDKSRWQQGNVFSCSVMHEALHNHYTQKSLSLSPDYKDDDDK EPKSSDKTHTCPPCPAPELLGGPSVFLFPPKPKDTLMISRTPEVTCVVVDVSHEDPEVKFNWYVDGVEVHNAKTKPREEQYNSTYRVVSVLTVLHQDWLNGKEYKCKVSNKALPAPIEKTISKAKGQPREPQVCTLPPSRDELTKNQVSLWCLVKGFYPSDIAVEWESNGQPENNYKTTPPVLDSDGSFFLYSKLTVDKSRWQQGNVFSCSVMHEALHNRYTQKSLSLSP light: DIVMTQSPLSLPVTPGEPASISCQSSQSLVHSNRNTYLHWYQQKPGQAPRLLIYKVSNRFSGVPDRFSGSGSGTDFTLKISRVEAEDVGVYYCGQGTQVPYTFGQGTKLEIKRTVAAPSVFIFPPSDEQLKSGTASVVCLLNNFYPREAKVQWKVDNALQSGNSQESVTEQDSKDSTYSLSSTLTLSKADYEKHKVYACEVTHQGLSSPVTKSFNRGEC |
| 0.7 | GLS3000 R24P one-arm antibody (antibody, human IgG1, kappa, L234A L235A, N297A, name in Kabat numbering) heavy: QVQLVESGGGVVQPGRSLRLSCAASGFTFSNAWMHWVRQAPGKGLEWVAQIKAKSNNYATYYAESVKGRFTISRDDSKNSLYLQMNSLKTEDTAVYYCRYVHYGAYYGVDAWGQGTTVTVSSASTKGPSVFPLAPSSKSTSGGTAALGCLVKDYFPEPVTVSWNSGALTSGVHTFPAVLQSSGLYSLSSVVTVPSSSLGTQTYICNVNHKPSNTKVDKKVEPKSCDKTHTCPPCPAPEAAGGPSVFLFPPKPKDTLMISRTPEVTCVVVDVSHEDPEVKFNWYVDGVEVHNAKTKPREEQYASTYRVVSVLTVLHQDWLNGKEYKCKVSNKALPAPIEKTISKAKGQPREPQVYTLPPSRCELTKNQVSLSCAVKGFYPSDIAVEWESNGQPENNYKTTPPVLDSDGSFFLVSKLTVDKSRWQQGNVFSCSVMHEALHNHYTQKSLSLSPDYKDDDDK EPKSSDKTHTCPPCPAPELLGGPSVFLFPPKPKDTLMISRTPEVTCVVVDVSHEDPEVKFNWYVDGVEVHNAKTKPREEQYNSTYRVVSVLTVLHQDWLNGKEYKCKVSNKALPAPIEKTISKAKGQPREPQVCTLPPSRDELTKNQVSLWCLVKGFYPSDIAVEWESNGQPENNYKTTPPVLDSDGSFFLYSKLTVDKSRWQQGNVFSCSVMHEALHNRYTQKSLSLSP light: DIVMTQSPLSLPVTPGEPASISCPSSQSLVHSNRNTYLHWYQQKPGQAPRLLIYKVSNRFSGVPDRFSGSGSGTDFTLKISRVEAEDVGVYYCGQGTQVPYTFGQGTKLEIKRTVAAPSVFIFPPSDEQLKSGTASVVCLLNNFYPREAKVQWKVDNALQSGNSQESVTEQDSKDSTYSLSSTLTLSKADYEKHKVYACEVTHQGLSSPVTKSFNRGEC |
